From paper PMC9482650, “Quantitative fragmentomics allow affinity mapping of interactomes” (Nature Communications, 2022)

Columns and labels:
Test in all cases: holdup assay
Parameters in all cases: key: below the threshold = too weak to quantify, mostly under pKd 3.1 to 4
Conditions in all cases: plain residues with an end cap or a label only (N-terminal biotin on a linker: ado-ado)
DLG1_3, Q12959 = biological target: DLG1_3, Q12959
Inadl_4, Q8NI35 = biological target: Inadl_4, Q8NI35
Inadl_8, Q8NI35 = biological target: Inadl_8, Q8NI35
PDZRN4_1, Q6ZMN7 = biological target: PDZRN4_1, Q6ZMN7
Inadl_10, Q8NI35 = biological target: Inadl_10, Q8NI35
SCRIB_3, Q14160 = biological target: SCRIB_3, Q14160
GOPC, Q9HD26 = biological target: GOPC, Q9HD26
DLG3_3, Q92796 = biological target: T1, DLG3_3, Q92796
T1 sequence (Q92796 374-475, limits assumed, looked up): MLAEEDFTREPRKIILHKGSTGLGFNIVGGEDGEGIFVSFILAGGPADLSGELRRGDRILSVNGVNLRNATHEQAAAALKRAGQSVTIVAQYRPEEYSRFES

GRIP1_5, Q9Y3R0 = biological target: T2, GRIP1_5, Q9Y3R0
T2 sequence (Q9Y3R0 568-668, limits assumed, looked up): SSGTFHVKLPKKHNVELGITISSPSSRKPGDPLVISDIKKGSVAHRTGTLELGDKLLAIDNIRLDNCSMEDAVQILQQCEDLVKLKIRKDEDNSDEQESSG

NOS1, P29475 = biological target: NOS1, P29475
AHNAK1, Q09666 = biological target: AHNAK1, Q09666
Inadl_5, Q8NI35 = biological target: Inadl_5, Q8NI35
HTRA3, P83110 = biological target: T3, HTRA3, P83110
T3 sequence (P83110 354-453, limits assumed, looked up): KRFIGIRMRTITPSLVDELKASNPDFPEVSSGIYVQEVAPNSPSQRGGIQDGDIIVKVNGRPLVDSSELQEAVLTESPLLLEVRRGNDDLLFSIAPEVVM

Inadl_9, Q8NI35 = biological target: Inadl_9, Q8NI35
GRIP2_3, Q9C0E4 = biological target: GRIP2_3, Q9C0E4
FRMPD3, Q5JV73 = biological target: FRMPD3, Q5JV73
TJP1_3, Q07157 = biological target: TJP1_3, Q07157
DLG1_2, Q12959 = biological target: DLG1_2, Q12959
FRMPD1, Q5SYB0 = biological target: T4, FRMPD1, Q5SYB0
T4 sequence (Q5SYB0 52-145, limits assumed, looked up): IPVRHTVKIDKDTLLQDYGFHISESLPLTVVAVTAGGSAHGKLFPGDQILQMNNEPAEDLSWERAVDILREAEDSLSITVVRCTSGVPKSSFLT

APBA1_1, Q02410 = biological target: T5, APBA1_1, Q02410
T5 sequence (Q02410 651-752, limits assumed, looked up): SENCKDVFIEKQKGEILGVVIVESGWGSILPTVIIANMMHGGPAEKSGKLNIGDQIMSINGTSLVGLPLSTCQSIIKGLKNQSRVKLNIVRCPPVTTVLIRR

DVL3, Q92997 = biological target: T6, DVL3, Q92997
T6 sequence (Q92997 244-331, limits assumed, looked up): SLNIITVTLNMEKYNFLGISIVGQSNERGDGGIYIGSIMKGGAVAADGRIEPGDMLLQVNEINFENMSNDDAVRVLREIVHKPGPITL

TJP2_1, Q9UDY2 = biological target: TJP2_1, Q9UDY2
APBA1_2, Q02410 = biological target: T7, APBA1_2, Q02410
T7 sequence (Q02410 742-832, limits assumed, looked up): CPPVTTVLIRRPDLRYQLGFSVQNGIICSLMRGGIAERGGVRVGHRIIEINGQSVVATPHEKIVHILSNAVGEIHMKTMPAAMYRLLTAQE

PDLIM1, O00151 = biological target: PDLIM1, O00151
PTPN3, P26045 = biological target: PTPN3, P26045
DFNB31_2, Q9P202 = biological target: T8, DFNB31_2, Q9P202
T8 sequence (Q9P202 274-371, limits assumed, looked up): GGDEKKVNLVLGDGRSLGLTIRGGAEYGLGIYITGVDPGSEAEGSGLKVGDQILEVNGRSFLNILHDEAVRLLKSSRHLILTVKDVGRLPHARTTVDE

NHERF4_1, Q86UT5-2 = biological target: NHERF4_1, Q86UT5-2
SCRIB_1, Q14160 = biological target: SCRIB_1, Q14160
LNX2_2, Q8N448 = biological target: T9, LNX2_2, Q8N448
T9 sequence (Q8N448 334-432, limits assumed, looked up): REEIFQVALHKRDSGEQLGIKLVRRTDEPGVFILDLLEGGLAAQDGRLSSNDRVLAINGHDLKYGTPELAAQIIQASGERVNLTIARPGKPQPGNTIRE

Chain of TJP2_1, Q9UDY2 (Q9UDY2 24-128): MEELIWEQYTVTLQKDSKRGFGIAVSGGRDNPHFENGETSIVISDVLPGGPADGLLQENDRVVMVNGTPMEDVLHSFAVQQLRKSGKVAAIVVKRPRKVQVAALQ
Chain of SCRIB_3, Q14160 (Q14160 999-1103): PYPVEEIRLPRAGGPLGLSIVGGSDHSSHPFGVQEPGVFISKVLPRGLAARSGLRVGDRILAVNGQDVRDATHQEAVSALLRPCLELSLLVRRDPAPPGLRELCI
Chain of Inadl_9, Q8NI35 (Q8NI35 1530-1615): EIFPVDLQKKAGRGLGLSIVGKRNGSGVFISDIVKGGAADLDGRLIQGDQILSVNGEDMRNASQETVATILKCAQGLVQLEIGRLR
Chain of PDLIM1, O00151 (O00151 1-87): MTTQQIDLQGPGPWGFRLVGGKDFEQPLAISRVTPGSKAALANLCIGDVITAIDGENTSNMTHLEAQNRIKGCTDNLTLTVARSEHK
Chain of Inadl_4, Q8NI35 (Q8NI35 547-651): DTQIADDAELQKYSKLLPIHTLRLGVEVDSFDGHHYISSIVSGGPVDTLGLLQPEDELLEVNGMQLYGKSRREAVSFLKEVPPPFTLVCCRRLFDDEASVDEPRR
Chain of DLG1_2, Q12959 (Q12959 314-412): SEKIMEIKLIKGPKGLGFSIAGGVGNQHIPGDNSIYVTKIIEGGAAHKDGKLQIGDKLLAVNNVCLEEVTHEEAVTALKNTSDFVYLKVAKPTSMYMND
Chain of DLG1_3, Q12959 (Q12959 457-571): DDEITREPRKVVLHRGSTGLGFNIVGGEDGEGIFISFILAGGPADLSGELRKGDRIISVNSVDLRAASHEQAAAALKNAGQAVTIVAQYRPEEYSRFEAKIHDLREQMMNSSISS
Chain of SCRIB_1, Q14160 (Q14160 718-814): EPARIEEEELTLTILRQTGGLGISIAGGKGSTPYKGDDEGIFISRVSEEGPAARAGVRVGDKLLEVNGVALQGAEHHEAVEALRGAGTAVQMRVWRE
Chain of FRMPD3, Q5JV73 (Q5JV73 12-100): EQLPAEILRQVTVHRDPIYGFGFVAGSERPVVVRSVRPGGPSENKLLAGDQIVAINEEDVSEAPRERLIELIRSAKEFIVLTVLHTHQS
Chain of TJP1_3, Q07157 (Q07157 416-512): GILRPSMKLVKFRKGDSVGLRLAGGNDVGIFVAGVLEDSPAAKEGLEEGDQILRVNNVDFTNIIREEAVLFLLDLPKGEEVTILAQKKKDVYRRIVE
Chain of NHERF4_1, Q86UT5-2 (Q86UT5 other isoform, or with tags, fused parts or gaps): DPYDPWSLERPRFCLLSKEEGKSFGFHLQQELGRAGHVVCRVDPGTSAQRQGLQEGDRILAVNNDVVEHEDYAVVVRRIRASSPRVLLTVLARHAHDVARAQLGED
Chain of Inadl_10, Q8NI35 (Q8NI35 1673-1763): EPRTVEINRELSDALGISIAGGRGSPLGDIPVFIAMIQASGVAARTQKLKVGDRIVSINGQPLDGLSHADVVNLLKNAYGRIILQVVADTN
Chain of PTPN3, P26045 (P26045 505-587): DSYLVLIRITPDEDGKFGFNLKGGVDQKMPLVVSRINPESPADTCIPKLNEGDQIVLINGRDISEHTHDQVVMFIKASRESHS
Chain of AHNAK1, Q09666 (Q09666 4-100): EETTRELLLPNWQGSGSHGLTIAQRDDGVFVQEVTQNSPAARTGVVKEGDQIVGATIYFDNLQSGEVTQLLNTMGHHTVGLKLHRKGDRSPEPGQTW
Chain of Inadl_8, Q8NI35 (Q8NI35 1425-1530): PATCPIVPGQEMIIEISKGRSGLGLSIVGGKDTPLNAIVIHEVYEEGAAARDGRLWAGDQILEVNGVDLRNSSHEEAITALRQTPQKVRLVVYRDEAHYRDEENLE
Chain of Inadl_5, Q8NI35 (Q8NI35 673-780): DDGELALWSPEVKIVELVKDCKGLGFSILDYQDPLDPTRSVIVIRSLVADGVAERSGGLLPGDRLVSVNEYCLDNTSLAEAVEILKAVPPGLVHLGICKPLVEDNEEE
Chain of NOS1, P29475 (P29475 9-101): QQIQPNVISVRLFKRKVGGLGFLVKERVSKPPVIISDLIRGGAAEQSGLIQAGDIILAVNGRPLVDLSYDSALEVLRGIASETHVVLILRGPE
Chain of PDZRN4_1, Q6ZMN7 (Q6ZMN7 213-318): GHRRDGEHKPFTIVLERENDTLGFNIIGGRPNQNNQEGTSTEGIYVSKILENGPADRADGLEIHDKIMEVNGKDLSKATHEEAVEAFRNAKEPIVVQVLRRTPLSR
Chain of GRIP2_3, Q9C0E4 (Q9C0E4 238-339): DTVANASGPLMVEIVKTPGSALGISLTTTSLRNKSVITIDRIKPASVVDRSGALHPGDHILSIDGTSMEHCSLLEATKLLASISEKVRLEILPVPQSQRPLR

Row | Binder | pKd (DLG1_3, Q12959) | pKd (Inadl_4, Q8NI35) | pKd (Inadl_8, Q8NI35) | pKd (PDZRN4_1, Q6ZMN7) | pKd (Inadl_10, Q8NI35) | pKd (SCRIB_3, Q14160) | pKd (GOPC, Q9HD26) | pKd (DLG3_3, Q92796) | pKd (GRIP1_5, Q9Y3R0) | pKd (NOS1, P29475) | pKd (AHNAK1, Q09666) | pKd (Inadl_5, Q8NI35) | pKd (HTRA3, P83110) | pKd (Inadl_9, Q8NI35) | pKd (GRIP2_3, Q9C0E4) | pKd (FRMPD3, Q5JV73) | pKd (TJP1_3, Q07157) | pKd (DLG1_2, Q12959) | pKd (FRMPD1, Q5SYB0) | pKd (APBA1_1, Q02410) | also measured
1 | TNSRHGETTV [FZD2, Q14332] | 4.14 | below the threshold | 3.57 | 4.18 | below the threshold | 4.62 | 3.88 | 4.24 | below the threshold | 3.79 | below the threshold | below the threshold | below the threshold | 3.74 | below the threshold | below the threshold | below the threshold | 5.17 | below the threshold | below the threshold | pKd (DVL3, Q92997): below the threshold; pKd (TJP2_1, Q9UDY2): below the threshold; pKd (APBA1_2, Q02410): 3.71; pKd (PDLIM1, O00151): below the threshold; pKd (PTPN3, P26045): 4.61; pKd (DFNB31_2, Q9P202): below the threshold; pKd (NHERF4_1, Q86UT5-2): below the threshold; pKd (SCRIB_1, Q14160): 4.25; pKd (LNX2_2, Q8N448): 4.83
2 | STKRKLASAV [NCF1, P14598] | below the threshold | below the threshold | 4.46 | below the threshold | below the threshold | 3.55 | below the threshold | below the threshold | below the threshold | 4.07 | below the threshold | below the threshold | below the threshold | below the threshold | below the threshold | below the threshold | below the threshold | 4.61 | below the threshold | below the threshold | pKd (DVL3, Q92997): below the threshold; pKd (TJP2_1, Q9UDY2): below the threshold; pKd (APBA1_2, Q02410): 3.88; pKd (PDLIM1, O00151): below the threshold; pKd (PTPN3, P26045): 3.95; pKd (DFNB31_2, Q9P202): below the threshold; pKd (NHERF4_1, Q86UT5-2): below the threshold; pKd (SCRIB_1, Q14160): below the threshold; pKd (LNX2_2, Q8N448): below the threshold
3 | LESTTVGTSV [KARS1, Q15046] | 3.78 | below the threshold | 4.15 | 4.29 | below the threshold | 4.4 | below the threshold | 3.6 | below the threshold | 3.86 | below the threshold | below the threshold | below the threshold | 3.67 | below the threshold | below the threshold | below the threshold | 4.34 | below the threshold | below the threshold | pKd (DVL3, Q92997): below the threshold; pKd (TJP2_1, Q9UDY2): below the threshold; pKd (APBA1_2, Q02410): 4.69; pKd (PDLIM1, O00151): below the threshold; pKd (PTPN3, P26045): 4.82; pKd (DFNB31_2, Q9P202): below the threshold; pKd (NHERF4_1, Q86UT5-2): below the threshold; pKd (SCRIB_1, Q14160): 3.81; pKd (LNX2_2, Q8N448): 4.39
4 | ARESQKVSHV [FAM110B, Q8TC76] | below the threshold | below the threshold | 4.8 | below the threshold | below the threshold | 4.47 | 3.98 | below the threshold | below the threshold | 3.55 | below the threshold | below the threshold | below the threshold | 3.9 | below the threshold | below the threshold | below the threshold | 4.68 | below the threshold | below the threshold | pKd (DVL3, Q92997): below the threshold; pKd (TJP2_1, Q9UDY2): 3.87; pKd (APBA1_2, Q02410): 4.41; pKd (PDLIM1, O00151): below the threshold; pKd (PTPN3, P26045): 4.51; pKd (DFNB31_2, Q9P202): 3.9; pKd (NHERF4_1, Q86UT5-2): 3.74; pKd (SCRIB_1, Q14160): 3.74; pKd (LNX2_2, Q8N448): 4
5 | SPDRDRESIV [SCN5A, Q14524] | below the threshold | below the threshold | 3.85 | 3.95 | below the threshold | 3.86 | 3.7 | below the threshold | below the threshold | 3.7 | below the threshold | below the threshold | below the threshold | 3.54 | below the threshold | below the threshold | below the threshold | 4.86 | below the threshold | below the threshold | pKd (DVL3, Q92997): below the threshold; pKd (TJP2_1, Q9UDY2): below the threshold; pKd (APBA1_2, Q02410): 3.55; pKd (PDLIM1, O00151): below the threshold; pKd (PTPN3, P26045): 4.78; pKd (DFNB31_2, Q9P202): below the threshold; pKd (NHERF4_1, Q86UT5-2): below the threshold; pKd (SCRIB_1, Q14160): 3.57; pKd (LNX2_2, Q8N448): 4.44
